Reference: paper PMC8610991, “The encapsulin from Thermotoga maritima is a flavoprotein with a symmetry matched ferritin-like cargo protein” (Scientific Reports, 2021)
Where “and” joins values, the source holds several entries; their conditions need not be identical. Identical values can stand only once. Blank lines part the entries; values can stand above or below the molecule they belong to.

Legend:
[1] = target: T1, T. maritima encapsulin (Thermotoga maritima, UniProt Q9WZP2); experiment: cryo-EM structure […] A; absorbance, LC-MS of released flavin; type: binding; details: co-purified flavin; pi-stacking with W90 between two shell subunits; fluorescence quenched until denatured
T1 construct: gene enc; encapsulin shell, codon-optimised gene in pET14, E. coli BL21(DE3), co-expressed with His6-tagged FLP cargo (sub-stoichiometric loading); T = 1 icosahedral shell of 12 pentamers; flavin site between two shell subunits; with Encapsulated ferritin-like protein (FLP cargo)

[2] = target: T1, T. maritima encapsulin; experiment: LC-MS of flavin released from purified encapsulin; type: binding; details: co-purified minor species; exact flavin composition not determined
[3] = target: Thermotoga maritima encapsulin shell protein (Thermotoga maritima) (UniProt Q9WZP2); experiment: cryo-EM structure; FLP-loaded encapsulin, co-expressed in E. coli and purified as a complex; 2 mg/mL, 0.05% NP-40; 2D classes, I1 reconstruction of the shell (3.3 Å), C1 reconstruction, symmetry expansion and focused classification of the FLP at a pentameric vertex (shell ~3.5 Å, FLP ~7 Å)
[4] = target: the molecule itself; experiment: as above

T1 sequence (Q9WZP2 whole entry): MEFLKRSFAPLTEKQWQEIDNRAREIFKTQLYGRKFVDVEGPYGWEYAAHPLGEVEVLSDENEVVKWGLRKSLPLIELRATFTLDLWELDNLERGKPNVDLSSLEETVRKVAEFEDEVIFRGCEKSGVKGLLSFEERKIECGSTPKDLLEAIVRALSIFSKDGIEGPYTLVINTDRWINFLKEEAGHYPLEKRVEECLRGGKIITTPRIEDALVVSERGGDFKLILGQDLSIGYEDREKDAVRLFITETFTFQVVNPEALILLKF

Molecule: Cc1cc2nc3c(=O)[nH]c(=O)nc-3n(C[C@H](O)[C@H](O)[C@H](O)COP(=O)(O)O)c2cc1C [FMN, flavin mononucleotide]
- cryo-EM structure 3.3 A; absorbance, LC-MS of released flavin [1]: additional density near W90 that corresponds to a flavin undergoing π–stacking with the tryptophan

Molecule: Cc1cc2nc3c(=O)[nH]c(=O)nc-3n(C[C@H](O)[C@H](O)[C@H](O)CO)c2cc1C [riboflavin]
- LC-MS of flavin released from purified encapsulin [2]: Both FMN and riboflavin were present as the major and minor peaks respectively

- stoichiometry N [3]: 3 FLPs/shell and 5 FLPs/shell and 4 FLPs/shell
- stoichiometry N (FLPs per encapsulin) [3]: 2
B1: Thermotoga maritima ferritin-like protein (FLP) cargo (natural protein, UniProt Q9WZP3 1-114, looked up)
chain: MADQYHEPVSELTGKDRDFVRALNSLKEEIEAVAWYHQRVVTTKDETVRKILEHNRDEEMEHAAMLLEWLRRNMPGWDEALRTYLFTDKPITEIEEETSGGSENTGGDLGIRKL
notes: ferritin-like protein, native cargo of the Thermotoga maritima encapsulin; Decamer with fivefold symmetry; The map of the cargo (EMD-24002) has no atomic model of its own; a homologous FLP crystal structure (PDB 5DA5) was docked as a rigid body; also called cargo protein; ferritin-like cargo protein; copies: 10
- stoichiometry N [4]: 10
